From patent publication US20240409645A1 (DUALYX, published 2024)
Residue numbers refer to the chain shown, from its start.

T1: human IL-2Rγ (common cytokine receptor γ-chain) (human, UniProt P31785 23-262, limits assumed)
T1 construct: Recombinant protein coated on the plate or immobilised on a CM5 chip; also called hu IL-2R; CD132
T1 sequence: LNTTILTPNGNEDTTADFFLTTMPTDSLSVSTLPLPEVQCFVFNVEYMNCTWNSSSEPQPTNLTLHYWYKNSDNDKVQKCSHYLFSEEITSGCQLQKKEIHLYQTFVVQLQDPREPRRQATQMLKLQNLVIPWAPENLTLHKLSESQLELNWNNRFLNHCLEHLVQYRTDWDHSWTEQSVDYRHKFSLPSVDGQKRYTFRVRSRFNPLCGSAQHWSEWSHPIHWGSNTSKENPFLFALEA

T2: mouse IL-2Rγ (mouse, UniProt P34902 23-263)
T2 construct: also called mo IL-2R
T2 sequence (looked up): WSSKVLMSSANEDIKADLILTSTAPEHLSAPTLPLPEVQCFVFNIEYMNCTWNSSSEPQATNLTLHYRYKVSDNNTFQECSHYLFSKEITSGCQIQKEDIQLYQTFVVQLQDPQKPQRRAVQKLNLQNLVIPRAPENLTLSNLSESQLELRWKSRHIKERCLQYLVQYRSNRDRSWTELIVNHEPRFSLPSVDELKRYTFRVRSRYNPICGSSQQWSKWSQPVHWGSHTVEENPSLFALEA

B1: FJ1427_P035MP04E07 (VHH)
VHH: QVQLVESGGGLVQAGGSLRLSCAASGRTLSRYAMGWFRQAPGKERDFVAATSWGGDTYYADSVEGRFTFSRDNAKNAVYLQMNSLQPEDTAVYYCAAAPTSFATTAYSSSNSYAYWGQGTQVTVSS
notes: VHH in periplasmic extract; also called clone nr
B2: 28-MP04D02 (VHH)
VHH: B1 VHH with D46E, A49T, T51N, E64Q, A77T, S109G
notes: VHH in periplasmic extract; also called FJ1427_P035MP04D02; clone nr; 300
B3: FJ1427_P035MP04H07 (VHH)
VHH: B1 VHH with V2L, D46E, A49T, T51N, E64Q, A77T
notes: as for B1
B4: FJ1427_P035MP04D03 (VHH)
VHH: B1 VHH with Q1E, G15E, D46E, A49T, T51N, E64Q, A77T
notes: as for B1
B5: FJ1427_P035MP04A01 (VHH)
VHH: B1 VHH with Q1E, D46E, A49T, T51N, E64Q, A77T
notes: as for B1
B6: FJ1427_P035MP04B05 (VHH)
VHH: B1 VHH with Q1E, D46E, A49T, T51N, E64Q, A77T
notes: as for B1
B7: FJ1427_P035MP04G04 (VHH)
VHH: QVQLVESGGGLVQAGGSLRLSCAASGRTLSRYAVGWFRQAPGKEREFVTANSWGGDTFYADSVQGRFTFSRDNAKNTVYLQMNSLLPEDAAVYYCAAAPTSFATTAYSSSNSYKVWGQGTQVTVSS
notes: as for B1
B8: FJ1427_P035MP04F07 (VHH)
VHH: B1 VHH with Q1E, D46E, A49T, T51N, E64Q, A77T
notes: as for B1
B9: FJ1427_P035MP04B08 (VHH)
VHH: B1 VHH with A23V, D46E, A49T, T51N, E64Q, A77T
notes: as for B1
B10: 34-MP04A12 (VHH)
VHH: B1 VHH with G16S, Y32L, D46E, A50V, T51N, Y58F, F69Y, N76S, T120A
notes: VHH in periplasmic extract; also called FJ1427_P035MP04A12; clone nr
B11: FJ1427_P035MP04C06 (VHH)
VHH: B1 VHH with Q1E, D46E, A49T, T51N, E64Q, A77T
notes: as for B1
B12: FJ1427_P035MP04D06 (VHH)
VHH: B1 VHH with T28A, Y32L, D46E, A49V, T51S, G55D, Y58F, E64K, A77T, E88G
notes: as for B1
B13: FJ1427_P035MP04A06 (VHH)
VHH: B1 VHH with A14P, D46E, A49T, T51N, E64Q, A77T
notes: as for B1
B14: FJ1427_P035MP04C04 (VHH)
VHH: B1 VHH with Q1E, D46E, A49T, T51N, E64Q, A77T
notes: as for B1
B15: FJ1427_P035MP04F03 (VHH)
VHH: B1 VHH with Y32N, D46E, T51D, Y58F, A97G, A114R
notes: VHH in periplasmic extract; also called clone nr; 310
B16: 37-MP07F09 (VHH)
VHH: B1 VHH with D46E, F47Y, A50I, T51D, Y58F, A77E, A97G, A114R
notes: VHH in periplasmic extract; also called FJ1427_P035MP07F09; clone nr

Key:
[1] = biological target: T1, human IL-2Rγ (common cytokine receptor …); assay: SPR off-rate ranking, periplasmic extract on immobilised protein
Method in brief: (§1)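 CM5 chip, amine coupling (acetate buffer), ~2500 RU receptor. VHH P.E. flowed at 30 uL/min; off-rate read over 120 s.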

[2] = biological target: T2, mouse IL-2Rγ; assay: as above
Method in brief: as §1

[3] = biological target: T1, human IL-2Rγ (common cytokine receptor …); assay: PE binding ELISA, periplasmic extract on coated protein
Method in brief: (§2)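 Plates were coated overnight at 4° C with human or mouse IL-2R chain protein, and free sites blocked for 1 hour in 4% Marvel in PBS. Periplasmic extracts diluted 1:5 in 1% Marvel/PBS then bound for 1 hour, with specificity assessed from 450 nm absorbance relative to negative controls.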

[4] = biological target: T2, mouse IL-2Rγ; assay: as above
Method in brief: as §2

Binder	koff [1] [s⁻¹]	koff [2] [s⁻¹]	OD (PE binding ELISA) [3] [OD450 nm]	OD (PE binding ELISA) [4] [OD450 nm]
B1	0.00189	0.215	0.919	0.079
B2	0.0088	0.319	0.782	0.054
B3	0.00154	0.101	0.919	0.076
B4	0.00143	0.168	1.66	0.063
B5	0.00156	0.132	0.867	0.06
B6	0.00292	0.138	1.49	0.063
B7	0.00122	0.0666	1.67	0.276
B8	0.00249	0.156	0.789	0.064
B9	0.00205	0.113	1.44	0.075
B10	0.000333	0.00809	1.3	3.6
B11	0.00201	0.0465	0.797	0.061
B12	0.00145	0.0137	2.1	0.637
B13	0.00283	0.113	0.898	0.063
B14	0.00214	0.151	1.43	0.063
B15	0.00074	0.061	1.77	0.3
B16	0.00126	0.007	1.81	1.49
